Molecular target: A/New Caledonia/20/1999 (H1N1) hemagglutinin, truncated recombinant HA (Influenza A virus A/New …, UniProt Q6WG00, strain)
Experiment: ELISA

B1: mAb BE1 (whole mouse antibody) (antibody, V domains shown)
VH: EVQLVESGGGLVQPKGSLKLSCATSGFTFNTFDMHWVRQAPGKDLEWVARIRTKGNSYATYYAASVKDRITISRDDSQSMLYLEMNSLRSEDTAMYYCVREGGHYYGYYFDFWGQGTTLTVSS
VL: EIQMTQTTSSLSASLGDRVTISCRASQDIYNYLNWYQQQPDGAVKLLIYYTSKLHSGVPSRFSGSGSGTDYSLTITNLEQEDIATYFCQQGYTLPYTFGGGTKLEIK
binding result: binds

Reference: PMC11316637 (Structure (London, England : 1993), 2024)
